# Measured values from article PMC4627802, “Fine Mapping of the Interaction between C4b-Binding Protein and Outer Membrane Proteins LigA and LigB of Pathogenic Leptospira interrogans” (PLoS Neglected Tropical Diseases, 2015).
# T1: Human purified C4BP (α7β1) (human, UniProt P04003 49-597; P20851 18-252)
# T1 construct: also called C4BP WT (commercial); source: bought: Complement Technology (Texas, USA), human purified; copies: 7 + 1
# T1 sequence 1: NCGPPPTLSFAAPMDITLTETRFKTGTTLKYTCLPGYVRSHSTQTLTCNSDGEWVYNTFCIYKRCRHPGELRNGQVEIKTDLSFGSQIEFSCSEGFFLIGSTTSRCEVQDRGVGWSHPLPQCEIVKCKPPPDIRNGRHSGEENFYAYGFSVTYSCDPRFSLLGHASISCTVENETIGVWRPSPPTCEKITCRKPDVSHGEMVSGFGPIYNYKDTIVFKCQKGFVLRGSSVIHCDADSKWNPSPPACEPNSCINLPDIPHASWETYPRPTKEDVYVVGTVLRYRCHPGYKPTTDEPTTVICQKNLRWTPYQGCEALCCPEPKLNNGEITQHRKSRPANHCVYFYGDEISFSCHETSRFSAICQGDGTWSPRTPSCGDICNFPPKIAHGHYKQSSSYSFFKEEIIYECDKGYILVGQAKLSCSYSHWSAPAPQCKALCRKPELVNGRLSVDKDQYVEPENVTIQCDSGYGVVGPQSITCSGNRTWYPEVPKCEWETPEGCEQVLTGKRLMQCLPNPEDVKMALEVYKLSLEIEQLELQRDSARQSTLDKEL
# T1 sequence 2: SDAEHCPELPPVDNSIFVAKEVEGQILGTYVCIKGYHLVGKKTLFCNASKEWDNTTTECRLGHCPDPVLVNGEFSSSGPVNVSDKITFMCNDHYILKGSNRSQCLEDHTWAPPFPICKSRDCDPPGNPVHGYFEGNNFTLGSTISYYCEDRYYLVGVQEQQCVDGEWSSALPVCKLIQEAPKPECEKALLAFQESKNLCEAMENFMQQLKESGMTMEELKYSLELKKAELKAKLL
# Key:
# [1] = target: LigA10-11 (L. interrogans); assay: ELISA; Lig tandem-domain constructs immobilised; 1 μg of C4BP mixed with heparin (0-10 mg/ml); detected with mouse monoclonal anti-C4BP α/β chains; binding without heparin set as 100%
# [2] = target: LigB9-10 (L. interrogans); assay: as above
# LigB7-8 (L. interrogans) = assay: as above
# LcpA (L. interrogans) = assay: ELISA; LigA, LigB or LcpA immobilised; commercial C4BP in 10 mM Na2HPO4, 1.8 mM KH2PO4 with NaCl 0 to 600 mM; detected with polyclonal rabbit anti-C4BP; binding without NaCl set as 100%
# [3] = target: LigBC (fragment of leptospiral immunoglobulin-like protein B, residues 631-1156) (L. interrogans); assay: as above
# [4] = target: Human purified C4BP (α7β1) (human) (UniProt P04003); assay: ELISA; increasing concentrations of Lig proteins with a fixed amount of C4BP (1 μg); Kd estimated by nonlinear regression, Y = Bmax*X/(Kd + X)
# [5] = target: T1, Human purified C4BP (α7β1); assay: as above; conditions: both partners purified
molecule,measurement,setting,value
Human purified C4BP (α7β1) (from UniProt P04003 49-597; P20851 18-252) (complex),percent reduction of binding with 10 mg/ml heparin,[1],35%
same,percent reduction of binding with 10 mg/ml heparin,[2],27%
same,percent reduction of binding with 10 mg/ml heparin,LigB7-8 (L. interrogans),45%
same,percent decrease of binding at 150 mM NaCl,LcpA (L. interrogans),30%
same,percent decrease of binding at 150 mM NaCl,[3],45%
"LigBC (fragment of leptospiral immunoglobulin-like protein B, residues 631-1156) (domain or fragment)",Kd,[4],51.6 nM
"LigAC (C-terminal fragment of leptospiral immunoglobulin-like protein A, residues 631-1225) (domain or fragment) LTVSNTNAKRGLGSTLKQGTVKVTASMGGIEDSVDFTVTQATLTSIEVSPTRASIAKGMTQKFTATGIFTDHSKKNITEQVTWKSSSKALSMLNAPGEEGTGKAIAVGKTTITATLEKLSGKTDITVTPAVLTSIQISPVKHSLVKGLTEKFSATGIYSDNSNKDITSSVTWHSSNNSVATISNTKGYQGQAYGTGTGTVNIKATLGNVSSQVSKLSVTAAELTEIVLNPTSSHKAKGLTENFKATGVFTDNSTKDITDQVTWKSSNAAYAKISNATGSKGVVNALSKGTSHISATLGSISSANATFQVTPARIASIEVTPNNFFLIKGLSHPFKAIGIYTDNTKTDITKQVSWSSSDPNVASIDNTFSLAGSATAIDDGKTNITATLSDSMSASTTLYVTSAVLIDIEVKPSIFVLSEGLTLQLTATGIYSDHSTHDLTQVVQWTSSKPSNIAIENTAGKKGKVTALAFGDSEFTATYDSIKSNRAWIFVNDEKLVNITISSSQVLTDKGSAQQFKAIGTFQGGSQLDLTDLVTWKSSDSKVVSISNSNDDRGLTTALSVGSSKISAIYGSIHSDSIDFEVTPEILASIKTEP",Kd,[5],88.8 ± 7.8 nM
